Measured values from US20130137856A1, “PROTEIN BINDING DOMAINS STABILIZING FUNCTIONAL CONFORMATIONAL STATES OF GPCRS AND USES THEREOF” (priority 2010, published 2013).

Molecular target: β2AR-T4L (β2AR with the third intracellular loop replaced by T4 lysozyme, truncated at position 365) (human) (UniProt P07550)
Experiment: cell-based or functional assay

B1: Nanobody-80 (Nb80) (VHH, not shown: small tags and cut ends)
VHH: QVQLQESGGGLVQAGGSLRLSCAASGSIFSINTMGWYRQAPGKQRELVAAIHSGGSTNYANSVKGRFTISRDNAANTVYLQMNSLKPEDTAVYYCNVKDYGAVLYEYDYWGQGTQVTVSS
- High affinity state Ki of (-)-isoproterenol, [3H]-DHA competition binding, β2AR-T4L in HDL particles + 1 µM NB80 (β2AR-T4L alone: 33.5): 560 pM
- fold increase of the affinity of isoproterenol: 60 fold
